One may read the Kd as the equilibrium constant for the complex coming apart. A lower Kd goes with tighter binding.

We go through one substance from article doi:10.1101/2025.10.06.680090.

The test concerns the target HAdV-C5 capsid (replication-defective, E1-deleted vector HAdV-C5-GFP) (human adenovirus type C5). As to the kind of experiment: SPR. In general terms: In SPR one partner is held on a chip, and binding of the other changes the refractive index at the surface.

In turn, “recombinant human langerin protein (hCD207) (from UniProt Q9UJ71 1-328) (receptor)” came in with a Kd of 39 nM.
